Reference: the supplement of paper PMC9942255

Test system: Bacillus subtilis DB104 (SP-AmyQ fusion secretion)
Test: AmyQ secretion efficiency, weighted average sort bin (1 = best secretion, 10 = worst) (bin number (weighted average, 1-10)); higher = lower secretion efficiency
Summary of the method: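 Designed signal peptides were fused to mature AmyQ and expressed from the amyE locus in B. subtilis DB104, and this library was loaded at about 0.3 cells per ~65 nL alginate bead together with fluorescein-starch. After about 13 h of growth at room temperature and nile red staining, occupied beads were split into 10 equally populated bins by green/red fluorescence ratio using large-particle flow cytometry. Amplicons from every bin were Illumina-sequenced. The secretion score is the average bin number weighted by read frequency and normalised to beads per bin, excluding low-abundance sequences.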

| Sequence | AmyQ secretion efficiency |
| --- | --- |
| MKQGKFSVFLILLLMLTLVVAPKEKAEAAEE | 2.62 |
| MKKIWIGMLAAAVLLLMVPKVSLAEDD | 4.09 |
| MLCVMMLLFSAIASFPVSAQAAKK | 6.38 |
| MMIKQCVICLSLLVFGTEDEEEEAHAEET | 6.81 |
| MKLSVKIAGVLTVAAAAMTAKMYATYKGN | 7.14 |
| MKRSISIFITCLLITLLKRKKRRASPASAAGT | 6.57 |
| MFGKLLLATSALTFSLSLVLPLDGHAKAQEV | 3.02 |
| MKKLLAAGIIGLLTVSIASPSFKAEK | 5.02 |
| MKKKLAAGLTASAIVGTTLVDEPAEAATI | 5.66 |
| MKKRLIAPMLLSAASLAFFAMSGSPQAAAY | 5.7 |
| MPYLKRVLLLLVTGLFMSLFAVTATKSAQTG | 4.38 |
| MKWMCSICCAAVLLAGGAPQAEAV | 2.41 |
| MNLLFNLSMLTVMIASVFIFSSHALAAQY | 2.94 |
| MKRRKNVCLTALLSVLLVAGSVPFHAEAKKP | 2.59 |
| MKKQIITATTAVVLGSTLFAGAASAEEE | 2.04 |
| MKLKKRVSMFLVALTMCGGLFVITVFTAVFTPAKAVKT | 7.26 |
| MKKKLAAGLTASAIVGTTLVVTPAEAATD | 2.88 |
| MKKLLAAGIIGLLTVSIASPSFRAEK | 7.12 |
| MLKKKWMVGLLAGCLAAGGFSYNKFATEN | 7.42 |
| MSGSSVMMLALTAAAGLGLTALHSAPAAKAAPL | 2.7 |
| MKRMIVRMTLPLLIVCLAFSSFSASARAEEE | 3.68 |
| MKVPKTMLLSTAAGLLLSLTATSWSAHYV | 6.27 |
| MMKKGLLAGALTATVLFGTCAVGVPGIISPKTAEAASQ | 1.35 |
| MRGKSAVLLSLIMLIAGFLIPFSFQM | 7.72 |
| MKKRKKKSLLALLAVVAFAFTDSSKAKAAEA | 2.95 |
| MKSCKQLIVCSLAAILLLIPSVWFAADS | 4.55 |

| Sequence | AmyQ secretion efficiency |
| --- | --- |
| MGFVSSSIIALVTILMLSVTSLFALQPSAKAAEH | 2.48 |
| MKLSVKIAGVLTVAAAAMRKKMYATAKGN | 7.43 |
| MTMLRKIIGWILLLCIIPLFAFTVIGSGKEV | 6.78 |
| MKKAAAVLLSLGLVFIFVFAAVHVAEAKTK | 2.59 |
| MKKMSNSTNSMSVLMAFIICLSLILSVLAAPPSGAKAESV | 1.73 |
| MFRKLLSSLAISALSLGLLVSAPTASFAAES | 5.47 |
| MRKKRVITCVMAASLTLGSLLPAGYATAKKR | 2.88 |
| MLKRTSFVSSLFISSAVLLSILLPSGQIHAQSA | 2.68 |
| MKRIRIPMTLALGAALTIAPLSFASAEED | 3.29 |
| MGLGKKLSVAVAASFMSLSISLPGVQLAEG | 4.12 |
| MKKQIITATTAVVLGSTLFAGAYSAQSI | 5.58 |
| MKNMSCKLVVSVTLFFSFLTIGPLAHNQNS | 5.52 |
| MNFKKTVVSALSISALALSVSGVASAHTI | 3.63 |
| MKKSQYFIVFICFFVLFSVHPIAFTPSAAAADS | 2.09 |
| MKKVMLATALFLGLTPAGANARKR | 6.61 |
| MKKKLAAGLTASAIVGTTLVVTPREAATI | 6.83 |
| MLKKIALTLCPAIVGSLLFFTRKKASAHVS | 7.46 |
| MKNMSCKTNLVVSVTLFFSFLTIGPLAHAQNS | 1.06 |
| MLKKIALTLCPAIVGSLLFFTAPASARKR | 6.88 |
| MRKSLITLGLASVIGTKASAETL | 5.6 |
| MAIIIAIIAAVIVIAALITFNVRNNSPG | 6.02 |
| MTKKAWFLPLVCVLLISGWLAPAASASVQTT | 2.48 |
| MKKWIYVVLVLSIAGIGGFSVHIASS | 6.47 |
| MKRLFMKLLTTTASLVLFAVVFVFAVKGAPAKAETH | 2.87 |
| MKRITINSNFSNIITMFIAAAVISLTGTAEAAEK | 3.07 |
| MNFKKTVVSALSISALALSVSGVASARRK | 6.94 |

| Sequence | AmyQ secretion efficiency |
| --- | --- |
| MKVLLSALLLLLFAFEPSSSGKKL | 6.37 |
| MKKRFFGPIILAFILFAGTASAIAIPS | 5.82 |
| MRSYIKVLTMCFLGLILFVPTHLADNS | 6.38 |
| MKLSVKIAGVLTVAAAAMEEKMYATAKGN | 7.66 |
| MKKLCVMMLLFSAIASFPVSAQAKDQ | 2.86 |
| MLCVMMLLFSAIASFPVSASATAQAKDQ | 5.05 |
| MKKLLAAGIIGLLTVSIASPSFPAEK | 7.88 |
| MLTLRTLCVLMILSGVIFFGLKIDAKDI | 6.18 |
| MKLRKVLTGSVLSLGLLVSASPNFATSP | 5.36 |
| MSRITINIITMFIAAAVISLTGTAEAAEK | 2.45 |
| MKKKQVMLALTAAAGLGLTALHSAPAVKAAPL | 1.99 |
| MLKKIALTLCPAIVGSLLFFTDEDASAHVS | 4.47 |
| MKLWMRKTLVVLFTIVTFGLVSPPAALMIDKP | 2.83 |
| MKSKWMSGLLLVAVGFSFTQVMVHCGET | 4.81 |
| MKLWMRKTLVVLFTIVTFGLVSPPAALMCDKP | 2.74 |
| MKLSVKIAGVLTVAAAAMTAKMYGTAKGN | 5.59 |
| MGLGTTFLSVAVAASFMSLSISLPGVQAAEG | 2.45 |
| MYKKFVPRTQYSRLFFVSFEMMENPHALDY | 7.24 |
| MRFTKFTFIMITVVGFLSVLGLAAVFPLTAQAEKA | 1.81 |
| MKKRINLIGFLVLVPALIMSGITLIEANKK | 7.4 |
| MYKKFVPTYTKYFLFFVSFEMMENPHALDY | 6.52 |
| MRKRKVVGFLSVLGLAAVFPLTAQAEKA | 3.02 |
| MKKIWIGMLAAAVLLLMVPKVGLADAA | 3.24 |
| MTKRGIQAFAGGIILATAVLAAVFYLTDEDQAAAD | 6.91 |
| MKKAKRKRRKAAVGLFTFGGVQQASAKEL | 8.05 |
| MNFKKTVRKRRSISALALSVSGVASAHEI | 7.55 |

| Sequence | AmyQ secretion efficiency |
| --- | --- |
| MKNMSCKLVVSVTLFFSFLTIGPLAPVGVSPVAHAQNS | 1.75 |
| MKKRKRRVVLVLSIAGIGGFSVHAASS | 7.17 |
| MRKTKKRKLTGLMMFGTITAASASPD | 4.65 |
| MKWMCSICCAAVLLAGLGAAQAEAV | 3.8 |
| MKKSQYFIVFICFFVLFSEHEEAAAAADS | 4.11 |
| MKVLLSALLLLLFAFGPSASGKKL | 5.45 |
| MHLIRAAGAVCLAVVLIAGCRDEEDEHQAEGENT | 4.66 |
| MNKFLKSNFRFLLAAALGISLLGESNPIKASND | 1.52 |
| MKKLLAAGIIGLLTVSIASPYFAAEK | 6.19 |
| MKKIVIILFMFILVMSSGFSQFQPSTVFAADK | 3.08 |
| MLKKIALTLCPAIVGSLLFFTAPASDHVS | 5.33 |
| MFKFKKNFLVGLSAALMSIKKKKRRASAAST | 7.19 |
| MLKKIALTLCPAIVGSLLFFTAPASFHVS | 7.41 |
| MKKWLIIAVSLAIAIVLFMYTKGEAKTAGM | 4.28 |
| MKKRITYSLLALLAVVAFAFTDSSKAKAAEE | 2.71 |
| MRGKSAVLLSLIMLIAGFLDEESFSFQM | 5.97 |
| MKKIVSILFMFGLVMKKKQFQPSTVFAADK | 7.82 |
| MKSKGSIMIFIFACLILFSFTITTFINTETISAFSN | 7.77 |
| MKKFFGPIILAFILFAGAIAIPS | 6.93 |
| MTMLRKIIGWILLLCIIPLFAFTVIVSGKEV | 5.52 |
| MKTKTLFIFSAILTFAPNETFAQTA | 2.34 |
| MLKRTSFVSSLFISSAVLLSILLPSGQLHAQSA | 1.71 |
| MRKKRVITCVMAASLTLGSLLPAGYCSAKED | 3.36 |
| MRSYIKVLTMCFLGLILFVFSSLPTALADNS | 2.22 |
| MFSIFSLIMMTGLLFGLTSPAFAAEK | 4.78 |
| MKKTIMSFVAVAALSTTAFGAHASAATI | 2.11 |

| Sequence | AmyQ secretion efficiency |
| --- | --- |
| MKKWMAGLFLAAAVLLCLMVPQQIQFASS | 5.75 |
| MRMLWRSLALCGLALTLAPCAQGAEP | 2.58 |
| MKSAKSVSALTPSTTLAITAKAKEL | 6.91 |
| MRFTKVVGFLSVLGLAADEDLTAQAEKA | 3.78 |
| MKLKSKLLLMCLALLIVFVGATTIANAPTH | 8.04 |
| MKKVLMAFIICLSLILSVLAAPPSGAKAAED | 3.24 |
| MKKRFFGPIILAFILFAAIAIPS | 6.38 |
| MFNRLFRVCFLAALIMAFTLPNSNYAQKP | 5.99 |
| MSTGTSGSLISSLIVLSTVVISSLLFPGAAGASSK | 2.34 |
| MKWMCSICCAAVLLAGGAWQAEAV | 3.41 |
| MKKQIITATTAVVLGSTLFAGANSAQSI | 3.08 |
| MKKKLKRKKRRSAIVGTTLVVTPAEAATI | 6.61 |
| MKNMSKLVVSVTLFFSFLTIGPLAHAQNS | 1.41 |
| MKKAKKKKLSLGLVFGFSYGAGHVAEAKTK | 7.52 |
| MKVPKTMLLSTAAGLLLSLTATSPPFPPVSAHYV | 4.04 |
| MKKLVLCVSILAVILSGVQLTQLS | 5.61 |
| MKRIRIPMTLALGAALTIAPLSFPATVPGAGGTTASAEEN | 4.38 |
| MRSYIKVLTMCFLGLILFVPTALVDNS | 5.38 |
| MKKAFLVFLSVVLVTTVFLVKQQESVHQAKQL | 6.34 |
| MKLSVKIAGVLTVAAAAMTAKMYATNKGN | 6.32 |
| MKKWIYVVLVLSIAGIGGFSMHAASS | 5.22 |
| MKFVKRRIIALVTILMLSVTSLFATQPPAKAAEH | 2.78 |
| MKIRKILLSSALSFGMLEDEVPALAAGT | 2.62 |
